# Measured values published in the supplement of paper PMC12042874.
# ± gives the uncertainty stated by the source.
# Assay: amyloid nucleation score (Sup35N fusion, yeast selection) (log enrichment); library NNK2; higher = more nucleation; inactive = no reads after selection
# Summary of the method: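 DiMSum was used to calculate nucleation scores as log enrichment of output over input reads, centred on the mode score of non-aggregating sequences. Sequences with fewer than 100 input reads were not scored. Input and output came from Illumina sequencing of plasmid inserts in psi-negative yeast expressing peptides of 20 random codons fused to Sup35N, induced 24 hours with 100 μM copper sulfate and then grown 7 days at 30°C on medium lacking adenine and uracil.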
row,Substance,amyloid nucleation score
1,MELMNMV,-0.127 ± 0.65
2,MELTSN,inactive
3,MFCSEMLVYGLMMVLSF,-0.05 ± 0.3
4,MFGHHKS,-0.5 ± 0.63
5,MFLSNDIAFVKNVLNRIRYL,-0.642 ± 0.78
6,MFLYTVTNARFYEWW,0.102 ± 0.61
7,MFNFWWSFYALFKLSWRPGF,-0.996 ± 0.49
8,MFNLSLNEFKPGLNRDCVQ,-0.258 ± 0.56
9,MFSPQLSALMILVSYMHDGW,2.04 ± 0.087
10,MFYASFGVKL,0.655 ± 0.65
11,MGCICWVDCKPYDFGMTVVM,-0.726 ± 0.49
12,MGFQVYLGRGLNDFKAE,2.66 ± 0.11
13,MGLMNCSYSVKKQAAVIRTD,0.06 ± 0.17
14,MGLRCWKIIMWNYSRKLHQC,0.031 ± 0.45
15,MGLSWLSLLLKCRCQWACKL,0.306 ± 0.65
16,MGLYLWGFRTTSICGVLMDY,-1.66 ± 0.76
17,MGNSYIEVRSLYR,-0.578 ± 0.64
18,MGSGSIFT,0.287 ± 0.45
19,MGVKPTPCRVRPPRRPGASA,1.68 ± 0.27
20,MGVRY,1.42 ± 0.38
21,MHDYFLVQ,-0.487 ± 0.42
22,MHGFNDAYFLCDVSAQGLV,-0.128 ± 0.28
23,MIDRE,0.83 ± 0.2
24,MIGSGVW,-1.07 ± 0.78
25,MIIVTAY,-0.073 ± 0.49
26,MINFDYYRYHCWCSNQHYTR,1.19 ± 0.47

row,Substance,amyloid nucleation score
1,MISYYLMSIYS,4.58 ± 0.065
2,MIYERASSVRISFGMLRFRS,-1.48 ± 1.1
3,MKFVNINGAICSVRHPSVRT,0.089 ± 0.79
4,MKGALWYSDKAT,0.102 ± 1.1
5,MKSNSLSGRCSQFHLES,-0.184 ± 1.1
6,MKVGLLD,-0.49 ± 0.76
7,MLHSRLAREMHTLVILFFNK,0.05 ± 0.49
8,MLIPRVFISHVDICGYISCS,4.626 ± 0.036
9,MLNLVATVLWDWSVDCSWQV,1.5 ± 0.11
10,MLRCQFTSTGFGNRLATFSD,3.02 ± 0.15
11,MLSQASKT,-0.84 ± 1.1
12,MLVLFADRRSMRDLDNTGFV,0.029 ± 0.79
13,MMAIFWGFSVQRRRGSGIDL,2.74 ± 0.18
14,MMGVCF,-0.916 ± 1.1
15,MMIAWFSRMCFF,2.92 ± 0.1
16,MMLNSINLKYLIWLCN,2.73 ± 0.06
17,MMLRLSCSSPQSLVRSSS,-0.181 ± 0.63
18,MNELVIIGILMCCTDF,8.484 ± 0.027
19,MNQTCIRVDRLELYRYM,inactive
20,MNRYSKIVSQFVLAVDSTYF,0.433 ± 0.74
21,MNVMNQSSFHMV,-0.108 ± 1.1
22,MPLLRVVMTLRHKSLFKAEM,-0.272 ± 0.44
23,MPPRGKSWSVRTSLWKQIFM,3.24 ± 0.11
24,MRAYFYNKRVISYSLISFPV,-1.45 ± 0.78
25,MRCWFTFVWCVIYY,inactive
26,MRGVTLYDYFDGIRIWRPLR,3.76 ± 0.12

row,Substance,amyloid nucleation score
1,MRLFFLVLICAYVVESGFQC,0.72 ± 0.25
2,MRSFCFSVQNIQVTYHVGLA,3.94 ± 0.1
3,MRSSFGK,-0.086 ± 0.5
4,MRTNRLKSVV,0.275 ± 0.33
5,MRVRLGSATR,0.47 ± 0.34
6,MSARECWTIRFPYRVIVWEV,0.214 ± 0.74
7,MSGAFVYAWCLRTGKCTQAG,-0.082 ± 0.27
8,MSGEDSGCLWDCNVYSRLDV,-0.486 ± 0.74
9,MSISSALNKSSHTNSSMWNK,-0.277 ± 0.31
10,MSIWCNSIDRTFIDNLRPVF,-1.43 ± 0.62
11,MSKYFWVSRGSSIITTW,-0.539 ± 0.37
12,MSLHPMRLHQWRPESIVLTE,0.365 ± 0.66
13,MSMFVGTYNSFFRQSLFSAF,-1.7 ± 0.78
14,MSNMVSSMGSRMFLIICVVS,0.68 ± 0.4
15,MTFDNDVCVSI,inactive
16,MTGNIEIIRMCRCTTYGMTY,1.09 ± 0.37
17,MTKRG,0.187 ± 0.41
18,MTMMVGRIISTNRVYS,1.29 ± 0.53
19,MTNSLCSTCIMFYSMCMNST,7.79 ± 0.08
20,MTSYAWMNTSSM,inactive
21,MTTFDIRIMA,0.195 ± 0.24
22,MVEHLCNNHSRFLYSAWGIE,-0.641 ± 0.56
23,MVFVFKDSLIFSRSLYIMEC,-1.34 ± 0.41
24,MVGCFWVMFVGREIYSRVRS,-0.915 ± 0.26
25,MVILVLFASTVLQYTVPFWV,0.247 ± 0.5
26,MVIWFPLEIMIRIRSPL,-0.766 ± 0.48

row,Substance,amyloid nucleation score
1,MVLVS,0.548 ± 0.34
2,MVRIGELSPRCNSFV,0.075 ± 0.53
3,MVSCRN,0.237 ± 1
4,MVSMFNGYAVLHCPLCIITR,7.11 ± 0.047
5,MVTTSSVSNADLNVDMWLEP,1.01 ± 0.2
6,MVTYVMLSIPGFSSKYFFEG,-1.42 ± 1.1
7,MWDNFPCAVVLFKLC,0.696 ± 0.23
8,MWKQWSSRTPRSVVYRGLMV,0.755 ± 0.21
9,MWRGQCV,1.06 ± 0.24
10,MWRTLGYHTNMVSA,inactive
11,MWTLLVKSTKGAHGQYSVMH,0.397 ± 0.22
12,MWWFYGSILHRGDRT,1.58 ± 0.23
13,MYCLFFFMWGCYYYTIFRSV,inactive
14,MYCLVYHQIYSDSHA,3.91 ± 0.05
15,MYLLFGSLTVYRIHYSVSNT,-1.14 ± 1.1
16,MYLRYSFLIISCELGDLNSL,inactive
17,MYPIWNQCSSWNEVVLNGCR,0.159 ± 0.4
18,MYPRPVYNIKLFLKEVWGQY,6.933 ± 0.046
19,MYREGSTVGLYMFPYCKDQS,0.237 ± 0.4
20,MYSLSAAFT,inactive
21,MYTSLLVYML,3.78 ± 0.048
22,MYYASIIEKYLYRNDLVGVG,0.269 ± 0.33
23,NADKVQGMRMNRDWYSWCCL,5.323 ± 0.038
24,NADPNCLSK,0.508 ± 0.57
25,NAEFIPGYMISVWTSIATIT,0.359 ± 0.42
26,NAFLPG,4.52 ± 0.12

row,Substance,amyloid nucleation score
1,NAFSKSIFKNMTQQKDQLSE,inactive
2,NAGVYLFYMCICYVKYFFYM,-0.87 ± 0.78
3,NAICPIKVSGFGCLSKR,0.092 ± 1.1
4,NAYLFMFFRRGLWFSVLPFV,-1.09 ± 1.1
5,NAYLVSRVIKLIVLSKWYRY,0.689 ± 0.57
6,NCFKECVVPHR,-0.043 ± 0.37
7,NCFVLVRALTYCLGNSR,5.18 ± 0.1
8,NCHMR,-0.19 ± 0.34
9,NCPSTDFPELMSMQSYCLLC,-1.71 ± 1.1
10,NCSYNMNKRASSMFHSGCVV,2.81 ± 0.14
11,NCTRSSVWNNVVCLESHPSY,-0.035 ± 0.76
12,NCWRNGCVQLFRWY,5.15 ± 0.092
13,NDDKRSRLMRWETSKIRSSV,3.89 ± 0.052
14,NDFTFLMFDM,1.25 ± 0.44
15,NDGCIGVFFDRMVPDWVTTL,-0.477 ± 0.48
16,NDGMSSIRWGMTPHYVSSGD,0.698 ± 0.14
17,NDHLGVS,3.69 ± 0.059
18,NDKVFYGRFSFHHVGHWCRV,-0.506 ± 0.41
19,NDRHLRWPFCPCYQVRLCIT,inactive
20,NDSRHTVIGYVMFKVYMYLK,inactive
21,NDTCIRLWRWLRAQDSWLGN,0.668 ± 0.37
22,NDYLFIFHLFCLVSCLMNKW,-0.228 ± 1.1
23,NELCRKPLNLGCISSYVFIE,-0.584 ± 0.3
24,NELVSLQVIWIF,-0.098 ± 0.79
